These are literature values, as cited in publication PMC6005658.

This series addresses arodyn (1). Kind of series: radioligand binding.

Sequence of κ opioid receptor (P34975 whole entry): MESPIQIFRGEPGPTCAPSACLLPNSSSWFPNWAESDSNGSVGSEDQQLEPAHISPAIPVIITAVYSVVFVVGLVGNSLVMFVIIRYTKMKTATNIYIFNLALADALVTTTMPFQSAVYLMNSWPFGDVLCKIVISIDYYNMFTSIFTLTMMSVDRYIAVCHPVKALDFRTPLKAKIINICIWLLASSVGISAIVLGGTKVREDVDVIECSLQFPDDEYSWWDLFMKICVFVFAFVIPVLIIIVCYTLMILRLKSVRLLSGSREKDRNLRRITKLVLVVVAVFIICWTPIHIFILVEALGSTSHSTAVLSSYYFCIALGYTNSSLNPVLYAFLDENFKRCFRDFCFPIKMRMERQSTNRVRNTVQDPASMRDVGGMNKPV
Sequence of μ opioid receptor (P33535 whole entry): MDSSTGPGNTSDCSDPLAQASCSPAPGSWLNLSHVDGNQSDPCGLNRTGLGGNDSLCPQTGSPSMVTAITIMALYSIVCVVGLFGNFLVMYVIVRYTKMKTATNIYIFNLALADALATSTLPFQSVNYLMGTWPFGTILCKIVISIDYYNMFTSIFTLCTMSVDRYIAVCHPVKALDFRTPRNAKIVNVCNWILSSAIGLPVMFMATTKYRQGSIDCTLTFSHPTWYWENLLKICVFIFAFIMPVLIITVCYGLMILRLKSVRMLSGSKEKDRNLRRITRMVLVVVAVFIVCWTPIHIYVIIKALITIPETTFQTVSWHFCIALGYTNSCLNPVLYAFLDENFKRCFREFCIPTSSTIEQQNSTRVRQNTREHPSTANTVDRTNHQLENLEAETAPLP

The term Ki denotes the dissociation constant of the complex between target and ligand, obtained from inhibition or displacement. With κ opioid receptor (from UniProt P34975), the Ki is 10 nM.
μ opioid receptor (from UniProt P33535): the Ki is 1750 nM.
